Measurements reported in article PMC8441365, “SCF^Fbxw5 targets kinesin‐13 proteins to facilitate ciliogenesis” (The EMBO Journal, 2021).

T1: MCAK (purified from Sf21 cells) (human, UniProt Q99661 1-725)
T1 construct: Kif2c/MCAK, human; also called Kif2c; source: Sf21, purified (Ni-NTA, TEV cleavage, Superdex 200)
T1 sequence (looked up): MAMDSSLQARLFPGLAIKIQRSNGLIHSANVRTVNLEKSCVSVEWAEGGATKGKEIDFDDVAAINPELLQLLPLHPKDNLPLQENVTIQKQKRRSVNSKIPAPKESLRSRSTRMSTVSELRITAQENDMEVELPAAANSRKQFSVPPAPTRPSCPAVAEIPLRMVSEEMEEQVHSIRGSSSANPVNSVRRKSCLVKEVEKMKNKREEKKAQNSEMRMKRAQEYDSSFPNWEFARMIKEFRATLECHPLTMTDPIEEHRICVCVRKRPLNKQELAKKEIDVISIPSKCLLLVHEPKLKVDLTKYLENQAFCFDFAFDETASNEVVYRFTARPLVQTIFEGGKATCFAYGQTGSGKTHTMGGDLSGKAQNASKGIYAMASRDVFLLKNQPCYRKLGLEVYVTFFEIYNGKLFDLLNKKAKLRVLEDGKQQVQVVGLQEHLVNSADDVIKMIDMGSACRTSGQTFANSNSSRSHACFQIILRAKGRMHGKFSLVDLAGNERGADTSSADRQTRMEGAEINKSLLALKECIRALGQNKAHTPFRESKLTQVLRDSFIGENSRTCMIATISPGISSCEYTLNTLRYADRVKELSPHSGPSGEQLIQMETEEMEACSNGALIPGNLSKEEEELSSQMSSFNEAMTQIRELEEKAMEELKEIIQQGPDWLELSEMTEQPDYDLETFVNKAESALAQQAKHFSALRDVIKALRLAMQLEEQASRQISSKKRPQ

B1: Fbxw5/Skp1 sub-complex (complex, human)
chain 1: MDEGGTPLLPDSLVYQIFLSLGPADVLAAGLVCRQWQAVSRDEFLWREQFYRYYQVARDVPRHPAAMSWYEEFQRLYDTVPCVEVQTLREHTDQVLHLSFSHSGYQFASCSKDCTVKIWSNDLTISLLHSADMRPYNWSYTQFSQFNKDDSLLLASGVFLGPHNSSSGEIAVISLDSFALLSRVRNKPYDVFGCWLTETSLISGNLHRIGDITSCSVLWLNNAFQDVESENVNVVKRLFKIQNLNASTVRTVMVADCSRFDSPDLLLEAGDPATSPCRIFDLGSDNEEVVAGPAPAHAKEGLRHFLDRVLEGRAQPQLSERMLETKVAELLAQGHTKPPERSATGAKSKYLIFTTGCLTYSPHQIGIKQILPHQMTTAGPVLGEGRGSDAFFDALDHVIDIHGHIIGMGLSPDNRYLYVNSRAWPNGAVVADPMQPPPIAEEIDLLVFDLKTMREVRRALRAHRAYTPNDECFFIFLDVSRDFVASGAEDRHGYIWDRHYNICLARLRHEDVVNSVVFSPQEQELLLTASDDATIKAWRSPRTMRVLQAPRPRPRTFFSWLASQRR
chain 2: MPSIKLQSSDGEIFEVDVEIAKQSVTIKTMLEDLGMDPVPLPNVNAAILKKVIQWCTHHKDDPPDDIPVWDQEFLKVDQGTLFELILAANYLDIKGLLDVTCKTVANMIKGKTPEEIRKTFNIKNDFTEEEEAQVRKENQWCEEK
notes: Fbxw5, human; Skp1, human, with deletion of two loops (aa 38-43 and 71-82), plasmid pFastBac1-Skp1ΔΔ; pFastBac1-Skp1ΔΔ is the Skp1 baculovirus plasmid that the methods describe; source: Sf21, co-infected with both baculoviruses, purified (Ni-NTA, Superdex 200); not shown: His tag (from the Ni-NTA purification and precipitation)

Assays:
[1] = target: T1, MCAK (purified from Sf21 cells); experiment: pull-down; purified proteins from Sf21 cells, 5-fold molar excess of prey over Fbxw5/Skp1 bait, mixed with competing E. coli lysate in PD buffer (20 mM HEPES pH 7.3, 110 mM K-acetate, 300 mM NaCl, 20 mM imidazole, 0.1% NP-40), precipitated via Ni-NTA agarose, SDS-PAGE; settings: both partners purified
Fbxw5/Skp1 sub-complex = target: B1; experiment: as above; settings: both partners purified

Row | Binder | binding result [1] | binding result (Fbxw5/Skp1 sub-complex)
1 | B1 | binds | –
2 | Kif2a (purified from Sf21 cells) (natural protein, human, UniProt O00139-1 1-679, looked up, source: Sf21, purified (Ni-NTA, TEV cleavage, Superdex 200)) MVTSLNEDNESVTVEWIENGDTKGKEIDLESIFSLNPDLVPDEEIEPSPETPPPPASSAKVNKIVKNRRTVASIKNDPPSRDNRVVGSARARPSQFPEQSSSAQQNGSVSDISPVQAAKKEFGPPSRRKSNCVKEVEKLQEKREKRRLQQQELREKRAQDVDATNPNYEIMCMIRDFRGSLDYRPLTTADPIDEHRICVCVRKRPLNKKETQMKDLDVITIPSKDVVMVHEPKQKVDLTRYLENQTFRFDYAFDDSAPNEMVYRFTARPLVETIFERGMATCFAYGQTGSGKTHTMGGDFSGKNQDCSKGIYALAARDVFLMLKKPNYKKLELQVYATFFEIYSGKVFDLLNRKTKLRVLEDGKQQVQVVGLQEREVKCVEDVLKLIDIGNSCRTSGQTSANAHSSRSHAVFQIILRRKGKLHGKFSLIDLAGNERGADTSSADRQTRLEGAEINKSLLALKECIRALGRNKPHTPFRASKLTQVLRDSFIGENSRTCMIATISPGMASCENTLNTLRYANRVKELTVDPTAAGDVRPIMHHPPNQIDDLETQWGVGSSPQRDDLKLLCEQNEEEVSPQLFTFHEAVSQMVEMEEQVVEDHRAVFQESIRWLEDEKALLEMTEEVDYDVDSYATQLEAILEQKIDILTELRDKVKSFRAALQEEEQASKQINPKRPRAL | – | binds
